In article PMC3079743:

System: TRF2DBD+L
Test: differential centrifugation
Conditions: self-association; agarose gel binding detected at 10-fold lower concentration; EMSA buffer composition not in the material (AFM incubations: without Mg2+ and KCl, 30 min, room temperature); strand insertion assay: 50 mM HEPES, 100 mM …

pRST5 2 kb telomeric fragment, histone-free (Tel DNA)
binding signal (% sedimented at up to 1 uM): 20
